Where no end group is shown, it is not given here.
Target: T1, recombinant hPDL-2 overexpressed on HEK 293 cells (human, UniProt Q9BQ51 20-273)
T1 chain: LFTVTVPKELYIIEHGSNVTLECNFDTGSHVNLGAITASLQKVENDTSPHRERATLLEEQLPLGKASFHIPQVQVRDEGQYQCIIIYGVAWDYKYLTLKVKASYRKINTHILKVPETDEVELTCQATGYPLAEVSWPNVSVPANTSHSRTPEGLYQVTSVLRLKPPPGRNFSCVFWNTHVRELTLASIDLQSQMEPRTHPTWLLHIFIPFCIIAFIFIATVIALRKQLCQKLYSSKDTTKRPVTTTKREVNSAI
Assay: flow cytometry, inhibition of soluble PD1-Fc binding to hPDL2-expressing HEK293 cells

Question: How did the EC50 turn out when SNTSESFKFRVTQLAPKAQIKE-NH2 (not fully specified (residue 8)) [Compound 8] was run?
Answer: The EC50 was 0.722 nM.

Reference: patent US20150087581A1 (AURIGENE DISCOVERY TECHNOLOGIES, published 2015)
